In patent US11306137B2, “Antibody binding agents that bind Acinetobactor and uses thereof” (priority 2015, dated 2022):

Experiments:
A. baumannii HUMC1 [1] = test: Lethal bloodstream (i.v. tail-vein) infection model, survival; format: in vivo, mice; settings: i.v. infection; treated i.p. at 1 hr post-infection; C8 150 μg, colistin 0.0125 mg/kg; FIG. 7D
A. baumannii HUMC1 [2] = test: Effects of antibody on colistin MIC; format: cell-based
Method: The minimum inhibitory concentration (MIC) of colistin for A. baumannii HUMC1 was determined in congruence with standard CLSI methodologies. In brief, A. baumannii HUMC1 was passaged in Mueller Hinton II (MH-II) Broth for 3 hr at 37° C. with shaking then diluting to 5×10^5 CFUs/mL. Colistin was serially diluted across rows of a 96-well plate with 0.1, 1, or 10 μg/mL C8 MAb, which was incubated at 37° C. for 24 hr. The MIC value was read as the lowest concentration that prevented visible growth of bacteria.

[3] = tested on: A. baumannii cell surface; test: Flow cytometry binding to A. baumannii cell surface; settings: HUMC1 strain
Method: Hybridoma pre-clones were selected for subcloning based on bacterial cell surface reactivity by flow cytometry. Briefly, A. baumannii was passaged to log phase, stained with the bacterial dye SYTO BC (LifeTech #B7277), then stained with pre-clone supernatant from 96-well plates at 4° C., rinsed, and counter-stained with CF 647-conjugated goat anti-mouse IgG (Sigma-Aldrich, #SAB4600182). Control samples were stained with mouse IgG1 isotype control mAb (R&D Systems, #MAB002). Percent positivity was determined by flow cytometry.
Hybridoma cell lines were propagated in 96-well flat-bottom plates in DMEM-20%, and supernatants were harvested from wells for initial flow cytometry screening to identify antibodies that bound to intact bacteria. In brief, A. baumannii isolates were passaged to log phase, stained with the bacterial dye SYTO BC (LifeTech #B7277), and incubated for 1 hr with undiluted supernatants collected from 96-well plates at 4° C. Cells were washed and counter-stained with a secondary antibody, CF647-conjugated goat anti-mouse IgG (Sigma-Aldrich, #SAB4600182). Control samples were stained with a mouse IgG1 isotype control MAb (R&D Systems, #MAB002) as a negative control, and mouse polyclonal HUMC1-immune serum as a positive control for bacterial binding. Hybridomas that tested positive for bacterial binding were subcloned by limiting dilution into 96-well plates to ensure clonality, expanded, and retested to confirm bacterial binding.

A. baumannii HUMC1 [4] = test: Lethal bloodstream (i.v. tail-vein) infection model, survival; format: in vivo, mice; settings: 2×10^7 HUMC1 i.v.; treated once i.v., approximately 20 μg
Method: To determine if C8 could treat, inhibit and/or prevent A. baumannii induced sepsis, mice were infected i.v. via the tail-vein with 2×10^7 hyper-virulent A. baumannii HUMC1 and were treated once i.v. with either protein-G purified C8 mAb (approximately 10 or 20 μg doses) or an isotype-control antibody in a saline buffer. […] In a second experiment, mice were similarly infected and the C8 MAb was administered once i.v. in saline buffer at a low (5 μg) and very low (0.5 μg) dose.
Male C3HeB/Fe mice (Jackson Labs) between the ages of 7-10 wk were used for all experiments. All animal work was conducted following approval by the Institutional Animal Use and Care Committee at the University of Southern California, in compliance with the recommendations in the Guide for the Care and Use of Laboratory Animals of the National Institutes of Health.
For the bloodstream infection model, mice were infected intravenously via the tail-vein with designated inocula of A. baumannii isolates. An oropharyngeal model of aspiration pneumonia that recapitulates hospital- or ventilator-associated pneumonia (VAP) relevant to ICU populations was used. In brief, mice were sedated with isoflurane, hung by their maxillary incisors, tongues held to prevent swallowing, and 50 μL of bacterial inocula was placed in the trachea to allow inoculation of the organisms into the lungs by reflexive aspiration.

[5] = target: T1, DHFR-3Loop fusion protein (mouse (DHFR part)); A. baumannii (OmpA …); test: ELISA with DHFR-3Loop as target (data not shown)
T1 construct: also called DHFR-3 Loop protein; recombinant DHFR-3Loop protein
T1 chain: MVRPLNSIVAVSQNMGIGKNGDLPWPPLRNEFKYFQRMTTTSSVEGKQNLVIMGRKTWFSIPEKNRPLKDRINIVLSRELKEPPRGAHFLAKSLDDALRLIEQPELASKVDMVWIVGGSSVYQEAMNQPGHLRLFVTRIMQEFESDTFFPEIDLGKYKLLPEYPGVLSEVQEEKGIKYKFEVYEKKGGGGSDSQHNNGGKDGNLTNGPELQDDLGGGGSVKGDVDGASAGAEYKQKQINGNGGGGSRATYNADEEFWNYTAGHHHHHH

[6] = target: T2, outer membrane protein A (OmpA) of A. baumannii (A. baumannii, UniProt Q6RYW5 20-356); test: ELISA with whole OmpA as target (data not shown)
T2 construct: also called whole OmpA
T2 sequence: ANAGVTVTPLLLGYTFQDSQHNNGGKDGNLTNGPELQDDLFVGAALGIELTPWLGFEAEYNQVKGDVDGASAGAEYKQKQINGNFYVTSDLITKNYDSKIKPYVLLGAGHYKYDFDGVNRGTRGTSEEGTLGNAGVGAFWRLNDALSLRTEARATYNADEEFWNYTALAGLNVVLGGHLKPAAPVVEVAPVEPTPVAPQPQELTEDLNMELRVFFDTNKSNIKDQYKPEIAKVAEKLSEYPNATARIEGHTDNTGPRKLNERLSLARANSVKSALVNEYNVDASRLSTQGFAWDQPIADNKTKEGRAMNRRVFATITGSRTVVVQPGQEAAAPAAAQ

Q: For colistin, which “survival, delayed treatment (monotherapy)” value (A. baumannii HUMC1 [1]) is on record?
A: completely ineffective

Q: What about the “MIC of colistin against HUMC1” value (A. baumannii HUMC1 [2]; colistin alone) of the same molecule?
A: 2 µg/mL

Q: And the “MIC of colistin against HUMC1” value (A. baumannii HUMC1 [2]; in the presence of C8 at 0.1 μg/mL)?
A: 2 µg/mL

Q: And the “MIC of colistin against HUMC1” value (A. baumannii HUMC1 [2]; in the presence of C8 at 1 μg/mL)?
A: 2 µg/mL

Q: And the “MIC of colistin against HUMC1” value (A. baumannii HUMC1 [2]; in the presence of C8 at 10 μg/mL)?
A: 2 µg/mL

B1: R2D2: mouse IgM monoclonal antibody from hybridoma R2D2 (ATCC PTA-122178); light chain SEQ ID NO:28, heavy chain SEQ ID NO:29 (antibody, listed as Mus musculus)
heavy: QVQLKQSGPGLVQPSQSLSITCTVSGFSLTSYGVHWVRQSPGKGLEWLGVIWSGGSTDYNAAFISRLSISKDNSKSQVFFKMNSLQANDTAIYYCARRRRSTAMDYWGQGTSVTVSSESQSFPN
light: DIGMTQSXSPQDMSVGPKVTMSSKCRKSLLNSRNQKKYLTSDQQKPGQYTKSLGDFASISESRVTDRFIGSGSGTDLPLGWGILPPLPLADYFCQQHYSTP
modifications: not fully specified; (8)..(8) Xaa can be any naturally occurring amino acid
Q: How did the “binding to the cell surface of A. baumannii by flow cytometry” value [3] turn out when B1 was run?
A: specifically bound

Q: What about the protection against infection (A. baumannii HUMC1 [4]) of the same molecule?
A: protective against infection

B2: 9.1C8 monoclonal antibody (antibody, V domains shown)
VH: EVQLQQSGPELVKPGASVKISCKASGYSFTGYTMNWVKQSHGKSLEWIGRINPYNGDSFYNQKFKGKATLTVDKSSNIAHMEFLSLTSEDSAVYYCGRSGDGPWFAYWGQGTLVTVSA
VL: LPLSLPVSLGDQASISCRSSQSIVHNNGNTYLEWYLQKPGQSPKLLIYKVSNRFSGVPDRFSGSGSGTDFTLKISRVEAEDLGVYYCFQGSHVPLTFGAGTKLEIKGSRS
notes: also called C8 mAb; C8 MAb
Q: Does B2 bind [5]?
A: no binding

Q: Does B2 bind [6]?
A: no binding

B3: X1 monoclonal antibody (antibody, V domains shown)
VH: EVQLQQSGPELVKPGASVKISCKASGYSFTGYFMNWVKQSHGKSLEWIGRINPYNGDTFYNQKFKGKATLTVDKSSSTAHMELRSLTSEDSAVYYCARLNYRGAYWGQGTLVTVSA
VL: B2 VL
notes: also called X1 mAb
Q: Does B3 bind [5]?
A: no binding

Q: Does B3 bind [6]?
A: no binding
